Target: Vps34 (vacuolar protein sorting 34), endogenous in MEF cell lysate (UniProt Q6PF93)
Sequence (Q6PF93 whole entry): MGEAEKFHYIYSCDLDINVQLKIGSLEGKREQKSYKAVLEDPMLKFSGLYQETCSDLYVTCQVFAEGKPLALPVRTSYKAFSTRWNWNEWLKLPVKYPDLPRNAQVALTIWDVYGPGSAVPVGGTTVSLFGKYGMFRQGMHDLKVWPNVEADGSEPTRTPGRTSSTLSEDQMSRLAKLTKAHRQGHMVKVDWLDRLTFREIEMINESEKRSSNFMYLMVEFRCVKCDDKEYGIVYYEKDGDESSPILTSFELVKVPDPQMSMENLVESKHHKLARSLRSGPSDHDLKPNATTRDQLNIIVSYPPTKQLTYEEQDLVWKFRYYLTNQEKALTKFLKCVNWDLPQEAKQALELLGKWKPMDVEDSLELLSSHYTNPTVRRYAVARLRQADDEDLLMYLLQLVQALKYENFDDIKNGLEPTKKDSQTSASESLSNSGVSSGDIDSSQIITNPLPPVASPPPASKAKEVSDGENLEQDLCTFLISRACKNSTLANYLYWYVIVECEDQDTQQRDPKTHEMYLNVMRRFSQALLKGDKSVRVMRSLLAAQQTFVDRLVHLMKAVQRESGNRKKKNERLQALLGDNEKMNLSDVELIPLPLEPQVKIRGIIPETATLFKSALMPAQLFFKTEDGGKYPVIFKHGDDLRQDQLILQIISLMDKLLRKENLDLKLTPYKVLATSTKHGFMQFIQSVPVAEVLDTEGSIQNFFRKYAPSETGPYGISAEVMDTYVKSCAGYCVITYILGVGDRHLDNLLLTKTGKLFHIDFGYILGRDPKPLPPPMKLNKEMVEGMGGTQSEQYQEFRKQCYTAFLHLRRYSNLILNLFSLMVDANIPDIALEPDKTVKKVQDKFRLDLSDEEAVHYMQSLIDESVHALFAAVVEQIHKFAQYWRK

purified GST-LRS protein, sequence (chain, as listed by the source): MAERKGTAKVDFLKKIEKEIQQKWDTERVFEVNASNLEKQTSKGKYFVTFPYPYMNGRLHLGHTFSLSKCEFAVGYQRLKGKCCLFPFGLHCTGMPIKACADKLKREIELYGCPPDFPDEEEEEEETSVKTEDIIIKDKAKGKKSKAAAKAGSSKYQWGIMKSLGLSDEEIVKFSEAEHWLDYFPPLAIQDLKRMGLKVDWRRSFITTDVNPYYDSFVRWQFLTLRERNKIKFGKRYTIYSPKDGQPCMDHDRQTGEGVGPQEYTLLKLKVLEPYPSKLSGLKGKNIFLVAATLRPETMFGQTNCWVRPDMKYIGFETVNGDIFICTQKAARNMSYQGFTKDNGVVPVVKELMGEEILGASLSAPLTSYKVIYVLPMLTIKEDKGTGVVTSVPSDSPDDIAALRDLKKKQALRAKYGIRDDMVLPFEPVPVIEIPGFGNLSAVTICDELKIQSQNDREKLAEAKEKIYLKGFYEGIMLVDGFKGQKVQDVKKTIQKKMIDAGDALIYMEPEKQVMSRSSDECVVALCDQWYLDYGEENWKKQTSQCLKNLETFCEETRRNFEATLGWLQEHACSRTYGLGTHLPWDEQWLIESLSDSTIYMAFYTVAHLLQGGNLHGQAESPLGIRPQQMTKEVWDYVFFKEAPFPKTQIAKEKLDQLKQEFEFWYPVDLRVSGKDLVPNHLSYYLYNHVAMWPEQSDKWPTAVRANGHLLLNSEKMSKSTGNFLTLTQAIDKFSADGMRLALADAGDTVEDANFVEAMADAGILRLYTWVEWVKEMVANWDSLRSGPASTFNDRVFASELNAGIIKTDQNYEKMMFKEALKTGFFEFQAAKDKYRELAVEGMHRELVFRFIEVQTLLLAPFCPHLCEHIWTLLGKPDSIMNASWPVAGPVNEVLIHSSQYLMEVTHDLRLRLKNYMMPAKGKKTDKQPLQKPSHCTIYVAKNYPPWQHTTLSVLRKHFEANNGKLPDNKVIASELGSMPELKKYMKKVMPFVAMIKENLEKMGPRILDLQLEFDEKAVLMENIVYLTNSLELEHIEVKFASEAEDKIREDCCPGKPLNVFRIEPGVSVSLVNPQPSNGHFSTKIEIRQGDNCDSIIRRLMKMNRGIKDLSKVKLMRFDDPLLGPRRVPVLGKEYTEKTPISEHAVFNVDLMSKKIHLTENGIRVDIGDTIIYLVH
GST-LRS mutation (F50A/Y52A), sequence (chain, as listed by the source F50A Y52A): as the sequence (chain, as listed by the source) above, with F50A, Y52A counted along it

Substance	activity of Vps34 (in vitro Vps34 lipid kinase assay)	activity of Vps34 (in vitro Vps34 lipid kinase assay), with leucine
GST-LRS mutation (F50A/Y52A)	LRS mutation (F50A/Y52A) did not induce the activation of Vps34, regardless of the presence or absence of leucine stimulation	–
purified GST-LRS protein	the activity of Vps34 was increased by about 3 times compared to the GST control	the activity was further increased by leucine stimulation
